Measurements from patent US20260231954A1, “PESTICIDAL ENZYMES FOR USE ON NEMATODES, INSECTS, AND MOLLUSKS” (priority 2023, published 2026).

B1: Chitinase 19F (SEQ ID NO: 182): Streptomyces coelicolor Chitinase F (Chi19F) (protein)
chain: ASCSSYHAWSADANYNTGDIVRYTDGKAYIAEHANPGYDPLISTWYWDPYACDGGSQTPVGNFVVSEAQFNQMFPGRNSFYTYSGLTAALSAYPGFANTGSDTTKKQEAAAFLANVSHETGGLVYIVEQNTANYPHYCDWNQPYGCPAGQAAYYGRGPIQLSWNFNYKAAGDALGIDLLGNPWLVQNDAAVAWKTGLWYWNTQSGPGTMTPHNAMVNGAGFGQTIRSINGSLECDGKNPAQVQSRVTKYQQFAQILGVSPGGNLYC
modifications: Chitinase F (Chi19F); Streptomyces coelicolor
B2: Esterase B (SEQ ID NO: 89): Bacillus subtilis Esterase (EstB without signal sequence) (protein, listed as Bacillus subtilis)
chain: ESVHNPVVLVHGISGASYNFFAIKNYLISQGWQSNKLYAIDFYDKTGNNLNNGPQLASYVDRVLKETGAKKVDIVAHSMGGANTLYYIKYLGGGNKIQNVVTLGGANGLVSSTALPGTDPNQKILYTSIYSLNDQIVINSLSRLQGARNIQLYGIGHIGLLSNSQVNGYIKEGLNGGGLNTN
modifications: Esterase (EstB H191 without signal sequence)

Legend:
[1] = system: Btk resistant Diamondback moth; assay: Diet-surface overlay (DSO) bioassay on Btk resistant Diamondback moth; assay type: in vivo, Plutella xylostella; conditions: number of individuals, n = 32, 7 days
Protocol: (§1) Diet-surface overlay bioassays are conducted with artificial diet mixes without antibiotics in 1.5 cm^2 cell bioassay trays(s). Artificial diets are commercially available from Southland Products Inc. Diets were prepared by dispersing 0.5 mL of molten diet to each 1.5 cm^2 cell. After solidification, 0.1 mL enzyme treatments were dispersed on top of diet in each cell and the tray was gently rocked in an orbital shaker to spread the liquid uniformly over the diet surface. Trays were placed under clean airflow until the surface of each cell was uniformly dried. One or two 16-cell sections were used per treatment (the number in larvae treated was 16 or 32).
(§2) One healthy first instar larva was placed into each treatment cell, each 16-cell section was covered with a re-sealable lid and incubated at 27° C. and light-dark period of 16:8 hrs. After 7 days, and according to the species, the number of individuals in the following developmental categories was recorded.
(§3) Diamondback moth (Plutella xylostella): Dead Larva (lack of movement), Larva Stage I (≤50% relative size), Larva Stage II (100% relative size, full size), Early Pupa (light green color), Late Pupa (light-dark brown color), and Adult.
(§4) Negative/untreated controls were treated with filtered water and positive controls were treated with lethal doses of Bacillus thuringiensis subsp. Kurstaki (Btk) spores at 1000 ppm.
However, both neutral proteases reduced the number of individuals reaching adult stage.
The effect of lipase (10× enzyme rate) and free lipases were tested on a Diamondback Moth Btk resistant strain. Free Lipases from Burkholderia cepacia (Bc) and Pseudomonas fluorescens (Pf) were tested along with Lipase (SEQ ID NO: 76) and the results are shown below in Table 45.

SCN nematodes = assay: Nematode death after foliar spray application on strawberry leaf segments; assay type: in vivo, Heterodera glycines; conditions: 0.6% solution of fermentation broth sprayed on strawberry leaf segments; 20 wells; water only 5%
Protocol: To determine whether a nematicidal enzyme can cause nematode death when sprayed as a foliar treatment, a trial was performed using chitinase 19F (SEQ ID NO: 182). The free enzyme was produced as described in Example 2. A SCN hatchery was set up as described in Example 2, except that no bleach sterilization step was performed. Six days later, the concentration of hatched nematodes was determined. Leaves from Quinault strawberry plants (Fragaria x ananassa) were cut into square sections and placed in the wells of a 24-well plate with the abaxial side up. […] Spray solutions were created with water alone and water plus fermentation broth with chitinase 19F (SEQ ID NO: 182). For the base strain control and chitinase solutions, 0.094 mL of fermentation broth was added to 15 mL of water (0.6% solution) to model a field spray application of 8 fl oz. per acre. Treatments were added to a small spray bottle and each leaf segment was sprayed approximately 3 times. After the leaves had dried, approximately 100 nematodes were added to each leaf segment. To assess the number of nematodes that were alive at the start of the experiment hours, 500 μL of sterile water was added to 4 wells of each treatment, and the leaf segment was washed and removed. The number of alive and dead nematodes were counted for each well, and the average percentage of dead nematodes were calculated for each treatment. […]

Steinernema feltiae = assay: In-vitro plate assay of Steinernema feltiae juvenile death after direct treatment; assay type: in vivo; conditions: Table 23, 40 μL per well (ILEVO 20 μL), water control 3%
Protocol: To determine the effects of enzymes on an additional soil-dwelling nematode species (Steinernema feltiae), a NemAttack™ package containing approximately 5 million S. feltiae juveniles was purchased from ARBICO Organics. The nematodes arrived already hatched and dispersed within a powder. To prepare the nematodes for use, an aliquot of the dry nematode mixture was rehydrated in water. The liquid nematode mixture was adjusted to a concentration of 20-30 nematode juveniles per 10 μL. The free enzymes Esterase B (SEQ ID NO: 89) and Chitinase 19F (SEQ ID NO: 182) were produced as described in Example 2.
Potato dextrose agar media containing chloramphenicol and chlortetracycline was prepared and added to sterile twenty-four-well cell culture plates (1 mL per well). The plates were divided according to the pre-determined N-value for each treatment (N=12-24). […]
To quantify the treatments' effects on nematode viability, the nematodes were examined under a dissecting microscope at 20× magnification. Initial (T0) values for the number of live juveniles, number of dead juveniles and total number of juveniles were recorded immediately after preparation of each well. […] Approximately 20-22 hours post addition of juveniles, the plates were evaluated, and the number of live juveniles, dead juveniles and total number of juveniles were recorded. […]

[2] = system: Diamondback moth (Plutella xylostella); assay: Diet-surface overlay (DSO) bioassay on Diamondback moth; assay type: in vivo
Protocol: as §1, §2, §3, §4

[3] = Table 49, esterases, Diamondback moth, number of individuals of n = 32

Molecule | Dead Larva ([1]; Table 47, chitinases, rate in mU/mL diet column) | Adult ([1]; Table 47) | Early Pupa ([1]; Table 47) | Larva Stage I ([1]; Table 47) | Larva Stage II ([1]; Table 47) | Late Pupa ([1]; Table 47) | Average percentage of dead nematodes at 24 hours (SCN nematodes) | Difference in Percent Death of Nematodes for 0 to 20 Hours (Steinernema feltiae) | Difference in Percent Death of Nematodes for 0 to 20 Hours (Steinernema feltiae; listed as Esterase B(SEQ ID NO: 89)) [%] | Adult [2, 3] | Early Pupa [2, 3] | Larva Stage I [2, 3] | Larva Stage II [2, 3] | Late Pupa [2, 3] | Dead Larva ([2]; Table 49, esterases, Diamondback moth, number of individuals of n = 32, DSO bioassay, dose per treatment in U/mL Diet) | individuals with delayed larva-pupa development ([2]; text to Table 49, esterases, n = 32) [%] | individuals at larva stage ([2]; text to Table 49: 34% of which were at larva stage) [%]
B1 | 2 | 1 | 4 | 2 | 1 | 22 | increased significantly above the control treatments |  |  |  |  |  |  |  |  |  | 
B2 |  |  |  |  |  |  |  | significantly increased the difference in percentage of S. feltiae juveniles that died | 33 | 0 | 4 | 3 | 8 | 17 | 0 | 47 | 34
